Results on 4 variants are retold here after IntAct's records for PubMed 29892012.

To fix the notation:
B1: Zyxin (Homo sapiens), Q15942 (parent)
chain: MAAPRPSPAISVSVSAPAFYAPQKKFGPVVAPKPKVNPFRPGDSEPPPAPGAQRAQMGRVGEIPPPPPEDFPLPPPPLAGDGDDAEGALGGAFPPPPPPIEESFPPAPLEEEIFPSPPPPPEEEGGPEAPIPPPPQPREKVSSIDLEIDSLSSLLDDMTKNDPFKARVSSGYVPPPVATPFSSKSSTKPAAGGTAPLPPWKSPSSSQPLPQVPAPAQSQTQFHVQPQPQPKPQVQLHVQSQTQPVSLANTQPRGPPASSPAPAPKFSPVTPKFTPVASKFSPGAPGGSGSQPNQKLGHPEALSAGTGSPQPPSFTYAQQREKPRVQEKQHPVPPPAQNQNQVRSPGAPGPLTLKEVEELEQLTQQLMQDMEHPQRQNVAVNELCGRCHQPLARAQPAVRALGQLFHIACFTCHQCAQQLQGQQFYSLEGAPYCEGCYTDTLEKCNTCGEPITDRMLRATGKAYHPHCFTCVVCARPLEGTSFIVDQANRPHCVPDYHKQYAPRCSVCSEPIMPEPGRDETVRVVALDKNFHMKCYKCEDCGKPLSIEADDNGCFPLDGHVLCRKCHTARAQT
B2: Zyxin (Homo sapiens), Q15942 (parent)
chain: B1 chain
partner: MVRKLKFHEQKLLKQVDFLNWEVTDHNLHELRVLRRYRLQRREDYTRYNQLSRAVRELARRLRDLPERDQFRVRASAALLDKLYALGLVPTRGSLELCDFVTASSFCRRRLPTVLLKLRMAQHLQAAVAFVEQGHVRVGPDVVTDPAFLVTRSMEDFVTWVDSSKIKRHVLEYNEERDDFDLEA
B3: TBC1 domain family member 22B (Homo sapiens), Q9NU19 (parent)
chain: MAAENSKQFWKRSAKLPGSIQPVYGAQHPPLDPRLTKNFIKERSKVNTVPLKNKKASSFHEFARNTSDAWDIGDDEEEDFSSPSFQTLNSKVALATAAQVLENHSKLRVKPERSQSTTSDVPANYKVIKSSSDAQLSRNSSDTCLRNPLHKQQSLPLRPIIPLVARISDQNASGAPPMTVREKTRLEKFRQLLSSQNTDLDELRKCSWPGVPREVRPITWRLLSGYLPANTERRKLTLQRKREEYFGFIEQYYDSRNEEHHQDTYRQIHIDIPRTNPLIPLFQQPLVQEIFERILFIWAIRHPASGYVQGINDLVTPFFVVFLSEYVEEDVENFDVTNLSQDMLRSIEADSFWCMSKLLDGIQDNYTFAQPGIQKKVKALEELVSRIDEQVHNHFRRYEVEYLQFAFRWMNNLLMRELPLRCTIRLWDTYQSEPEGFSHFHLYVCAAFLIKWRKEILDEEDFQGLLMLLQNLPTIHWGNEEIGLLLAEAYRLKYMFADAPNHYRR
partner: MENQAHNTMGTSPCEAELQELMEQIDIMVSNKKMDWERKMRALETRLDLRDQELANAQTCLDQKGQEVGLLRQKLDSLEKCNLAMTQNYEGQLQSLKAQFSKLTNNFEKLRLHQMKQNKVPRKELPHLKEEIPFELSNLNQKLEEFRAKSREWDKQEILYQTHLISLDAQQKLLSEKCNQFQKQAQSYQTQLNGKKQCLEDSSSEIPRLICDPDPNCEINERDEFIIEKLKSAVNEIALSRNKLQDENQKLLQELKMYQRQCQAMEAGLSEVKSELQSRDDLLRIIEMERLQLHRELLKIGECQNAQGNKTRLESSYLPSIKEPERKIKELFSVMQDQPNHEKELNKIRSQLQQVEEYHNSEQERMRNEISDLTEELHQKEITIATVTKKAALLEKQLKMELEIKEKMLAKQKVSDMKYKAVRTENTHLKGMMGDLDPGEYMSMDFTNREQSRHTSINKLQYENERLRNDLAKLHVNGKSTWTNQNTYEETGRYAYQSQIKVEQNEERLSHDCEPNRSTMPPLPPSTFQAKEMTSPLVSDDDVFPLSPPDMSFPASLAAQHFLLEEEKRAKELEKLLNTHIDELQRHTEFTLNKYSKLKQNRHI
B4: TBC1 domain family member 22B (Homo sapiens), Q9NU19 (parent)
chain: B3 chain
partner: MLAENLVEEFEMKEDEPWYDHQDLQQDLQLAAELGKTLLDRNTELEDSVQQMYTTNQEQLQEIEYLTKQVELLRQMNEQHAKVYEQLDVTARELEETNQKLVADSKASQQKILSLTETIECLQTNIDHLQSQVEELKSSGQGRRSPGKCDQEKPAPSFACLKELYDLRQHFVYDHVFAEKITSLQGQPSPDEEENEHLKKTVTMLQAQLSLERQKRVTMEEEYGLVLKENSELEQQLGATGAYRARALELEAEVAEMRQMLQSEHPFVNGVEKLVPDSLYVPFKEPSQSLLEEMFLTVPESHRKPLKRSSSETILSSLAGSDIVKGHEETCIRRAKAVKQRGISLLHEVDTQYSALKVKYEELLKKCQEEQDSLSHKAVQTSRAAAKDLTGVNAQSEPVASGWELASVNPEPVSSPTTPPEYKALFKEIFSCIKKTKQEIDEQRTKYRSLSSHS

In one assay the parent is B1. The conditions noted are these: with pf21a_human PHF21A.
Turning to MAAPRPSPAISVSVSAPAFYAPQKKFGPVVAPKPKVNPFRPGDSEPPPAPGAQRAQMGRVGEIPPPPPEDFPLPPPPLAGDGDDAEGALGGAFPPPPPPIEESFPPAPLEEEIFPSPPPPPEEEGGPEAPIPPPPQPREKVSSIDLEIDSLSSLLDDMTKNDPFKAGVSSGYVPPPVATPFSSKSSTKPAAGGTAPLPPWKSPSSSQPLPQVPAPAQSQTQFHVQPQPQPKPQVQLHVQSQTQPVSLANTQPRGPPASSPAPAPKFSPVTPKFTPVASKFSPGAPGGSGSQPNQKLGHPEALSAGTGSPQPPSFTYAQQREKPRVQEKQHPVPPPAQNQNQVRSPGAPGPLTLKEVEELEQLTQQLMQDMEHPQRQNVAVNELCGRCHQPLARAQPAVRALGQLFHIACFTCHQCAQQLQGQQFYSLEGAPYCEGCYTDTLEKCNTCGEPITDRMLRATGKAYHPHCFTCVVCARPLEGTSFIVDQANRPHCVPDYHKQYAPRCSVCSEPIMPEPGRDETVRVVALDKNFHMKCYKCEDCGKPLSIEADDNGCFPLDGHVLCRKCHTARAQT [R167G], the “effect of a mutation on the interaction” value is on record as “with no effect”.

Variants of B2 are the subject of a further assay. Particulars: with imp3_human IMP3, Q9NV31.
In the case of MAAPRPSPAISVSVSAPAFYAPQKKFGPVVAPKPKVNPFRPGDSEPPPAPGAQRAQMGRVGEIPPPPPEDFPLPPPPLAGDGDDAEGALGGAFPPPPPPIEESFPPAPLEEEIFPSPPPPPEEEGGPEAPIPPPPQPREKVSSIDLEIDSLSSLLDDMTKNDPFKAGVSSGYVPPPVATPFSSKSSTKPAAGGTAPLPPWKSPSSSQPLPQVPAPAQSQTQFHVQPQPQPKPQVQLHVQSQTQPVSLANTQPRGPPASSPAPAPKFSPVTPKFTPVASKFSPGAPGGSGSQPNQKLGHPEALSAGTGSPQPPSFTYAQQREKPRVQEKQHPVPPPAQNQNQVRSPGAPGPLTLKEVEELEQLTQQLMQDMEHPQRQNVAVNELCGRCHQPLARAQPAVRALGQLFHIACFTCHQCAQQLQGQQFYSLEGAPYCEGCYTDTLEKCNTCGEPITDRMLRATGKAYHPHCFTCVVCARPLEGTSFIVDQANRPHCVPDYHKQYAPRCSVCSEPIMPEPGRDETVRVVALDKNFHMKCYKCEDCGKPLSIEADDNGCFPLDGHVLCRKCHTARAQT [R167G], the “effect of a mutation on the interaction” value was “with no effect”.

The variants in another assay derive from B3. The conditions noted are these: with deup1_human DEUP1, Q05D60.
For MAAENSKQFWKRSAKLPGSIQPVYGAQHPPLDPRLTKNFIKERSKVNTVPLKNKKASSFHEFARNTSDAWDIGDDEEEDFSSPSFQTLNSKVALATAAQVLENHSKLRVKPERSQSTTSDVPANYKVIKSSSDAQLSRNSSDTCLRNPLHKQQSLPLRPIIPLVARISDQNASGAPPMTVREKTRLEKFRQLLSSQNTDLDELRKCSWPGVPREVRPITWRLLSGYLPANTERRKLTLQRKREEYFGFIEQYYDSRNEEHHQDTYRQIHIDIPRTNPLIPLFQQPLVQEIFERILFIWAIRHPASGYVQGINDLVTPFFVVFLSEYVEEDVENFDVTNLSQDMLRSIETDSFWCMSKLLDGIQDNYTFAQPGIQKKVKALEELVSRIDEQVHNHFRRYEVEYLQFAFRWMNNLLMRELPLRCTIRLWDTYQSEPEGFSHFHLYVCAAFLIKWRKEILDEEDFQGLLMLLQNLPTIHWGNEEIGLLLAEAYRLKYMFADAPNHYRR [A349T], the “effect of a mutation on the interaction” value is recorded as “disrupting interaction strength”.

Variants of B4 are the subject of another assay. Particulars: with cdr2_human CDR2, Q01850.
As to MAAENSKQFWKRSAKLPGSIQPVYGAQHPPLDPRLTKNFIKERSKVNTVPLKNKKASSFHEFARNTSDAWDIGDDEEEDFSSPSFQTLNSKVALATAAQVLENHSKLRVKPERSQSTTSDVPANYKVIKSSSDAQLSRNSSDTCLRNPLHKQQSLPLRPIIPLVARISDQNASGAPPMTVREKTRLEKFRQLLSSQNTDLDELRKCSWPGVPREVRPITWRLLSGYLPANTERRKLTLQRKREEYFGFIEQYYDSRNEEHHQDTYRQIHIDIPRTNPLIPLFQQPLVQEIFERILFIWAIRHPASGYVQGINDLVTPFFVVFLSEYVEEDVENFDVTNLSQDMLRSIETDSFWCMSKLLDGIQDNYTFAQPGIQKKVKALEELVSRIDEQVHNHFRRYEVEYLQFAFRWMNNLLMRELPLRCTIRLWDTYQSEPEGFSHFHLYVCAAFLIKWRKEILDEEDFQGLLMLLQNLPTIHWGNEEIGLLLAEAYRLKYMFADAPNHYRR [A349T], the “effect of a mutation on the interaction” value is listed as “disrupting interaction strength”.
